We go through 7 molecules from patent US20230357348A1 (AstraZeneca / MedImmune, published 2023).

Starred links: 1 amine or outer side, 2 acyl side, 3 side chain; linkers in the order of their positions; H or OH if unused. Non-standard residues stand in square brackets, D forms with d. Groups on a side chain read outwards from the residue. No end group written: not given here. *: point of attachment. C18 diacid = O=C(O)CCCCCCCCCCCCCCCCC(=O)*; γGlu = O=C(O)[C@H](CCC(=O)[*:2])N[*:1]; αMeF = C[C@](N)(Cc1ccccc1)C(=O)O; AEEA = NCCOCCOCC(=O)O; Aib = CC(C)(N)C(=O)O

In assay [1] the target is human GLP-1 receptor (hGLP-1R) (human, UniProt P43220 24-463). As to the kind of experiment: cell-based or functional assay.
For assay [2], the target named is human glucagon receptor (hGCGR) (human, UniProt P47871 26-477). In words: cell-based or functional assay.
Chain of human glucagon receptor (hGCGR) (P47871 26-477): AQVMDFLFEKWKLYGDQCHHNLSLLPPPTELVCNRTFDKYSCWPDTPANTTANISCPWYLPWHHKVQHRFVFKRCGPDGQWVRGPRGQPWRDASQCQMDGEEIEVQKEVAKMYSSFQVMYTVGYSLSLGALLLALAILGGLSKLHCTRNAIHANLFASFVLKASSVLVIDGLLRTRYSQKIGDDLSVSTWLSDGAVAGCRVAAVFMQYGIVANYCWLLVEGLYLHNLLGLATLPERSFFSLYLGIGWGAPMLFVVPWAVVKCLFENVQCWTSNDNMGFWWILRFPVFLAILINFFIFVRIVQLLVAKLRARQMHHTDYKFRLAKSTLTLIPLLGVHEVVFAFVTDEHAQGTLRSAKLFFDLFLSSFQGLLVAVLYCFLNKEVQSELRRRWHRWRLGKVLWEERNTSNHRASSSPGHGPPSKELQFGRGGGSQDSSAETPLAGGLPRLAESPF

B1: Peptide 18 (peptide)
peptide: H[Aib]HGS[αMeF]TSDVSK[αMeF]LDSK([AEEA-AEEA-γGlu-C18 diacid])AARD[αMeF]VQSIANT-NH2
modifications: N-terminus assumed
SMILES: CC[C@H](C)[C@H](NC(=O)[C@H](CO)NC(=O)[C@H](CCC(N)=O)NC(=O)[C@@H](NC(=O)[C@](C)(Cc1ccccc1)NC(=O)[C@H](CC(=O)O)NC(=O)[C@H](CCCNC(=N)N)NC(=O)[C@H](C)NC(=O)[C@H](C)NC(=O)[C@H](CCCCNC(=O)COCCOCCNC(=O)COCCOCCNC(=O)CC[C@H](NC(=O)CCCCCCCCCCCCCCCCC(=O)O)C(=O)O)NC(=O)[C@H](CO)NC(=O)[C@H](CC(=O)O)NC(=O)[C@H](CC(C)C)NC(=O)[C@](C)(Cc1ccccc1)NC(=O)[C@H](CCCCN)NC(=O)[C@H](CO)NC(=O)[C@@H](NC(=O)[C@H](CC(=O)O)NC(=O)[C@H](CO)NC(=O)[C@@H](NC(=O)[C@](C)(Cc1ccccc1)NC(=O)[C@H](CO)NC(=O)CNC(=O)[C@H](Cc1c[nH]cn1)NC(=O)C(C)(C)NC(=O)[C@@H](N)Cc1c[nH]cn1)[C@@H](C)O)C(C)C)C(C)C)C(=O)N[C@@H](C)C(=O)N[C@@H](CC(N)=O)C(=O)N[C@H](C(N)=O)[C@@H](C)O
With B1, the “hGLP-1R EC50 (pM)” value in assay [1] is 20.5 pM. Further, the “hGluc-R EC50 (pM)” value in assay [2] was found to be 122 pM.

B2: Peptide 20 (peptide)
peptide: H[Aib]HGS[αMeF]TSDVSK[αMeF]LDSK([AEEA-AEEA-γGlu-γGlu-C18 diacid])AARD[αMeF]VE[Aib]IANT-NH2
modifications: N-terminus assumed
SMILES: CC[C@H](C)[C@H](NC(=O)C(C)(C)NC(=O)[C@H](CCC(=O)O)NC(=O)[C@@H](NC(=O)[C@](C)(Cc1ccccc1)NC(=O)[C@H](CC(=O)O)NC(=O)[C@H](CCCNC(=N)N)NC(=O)[C@H](C)NC(=O)[C@H](C)NC(=O)[C@H](CCCCNC(=O)COCCOCCNC(=O)COCCOCCNC(=O)CC[C@H](NC(=O)CC[C@H](NC(=O)CCCCCCCCCCCCCCCCC(=O)O)C(=O)O)C(=O)O)NC(=O)[C@H](CO)NC(=O)[C@H](CC(=O)O)NC(=O)[C@H](CC(C)C)NC(=O)[C@](C)(Cc1ccccc1)NC(=O)[C@H](CCCCN)NC(=O)[C@H](CO)NC(=O)[C@@H](NC(=O)[C@H](CC(=O)O)NC(=O)[C@H](CO)NC(=O)[C@@H](NC(=O)[C@](C)(Cc1ccccc1)NC(=O)[C@H](CO)NC(=O)CNC(=O)[C@H](Cc1c[nH]cn1)NC(=O)C(C)(C)NC(=O)[C@@H](N)Cc1c[nH]cn1)[C@@H](C)O)C(C)C)C(C)C)C(=O)N[C@@H](C)C(=O)N[C@@H](CC(N)=O)C(=O)N[C@H](C(N)=O)[C@@H](C)O
Consider B2, for which the “hGLP-1R EC50 (pM)” value in assay [1] worked out at 152 pM. Further, the “hGluc-R EC50 (pM)” value in assay [2] was found to be 136 pM.

B3: Peptide 16 (peptide)
peptide: H[Aib]HGS[αMeF]TSDVSK[αMeF]LDSK([AEEA-AEEA-γGlu-C18 diacid])AARD[αMeF]IA[Aib]IANT-NH2
modifications: N-terminus assumed
SMILES: CC[C@H](C)[C@H](NC(=O)C(C)(C)NC(=O)[C@H](C)NC(=O)[C@@H](NC(=O)[C@](C)(Cc1ccccc1)NC(=O)[C@H](CC(=O)O)NC(=O)[C@H](CCCNC(=N)N)NC(=O)[C@H](C)NC(=O)[C@H](C)NC(=O)[C@H](CCCCNC(=O)COCCOCCNC(=O)COCCOCCNC(=O)CC[C@H](NC(=O)CCCCCCCCCCCCCCCCC(=O)O)C(=O)O)NC(=O)[C@H](CO)NC(=O)[C@H](CC(=O)O)NC(=O)[C@H](CC(C)C)NC(=O)[C@](C)(Cc1ccccc1)NC(=O)[C@H](CCCCN)NC(=O)[C@H](CO)NC(=O)[C@@H](NC(=O)[C@H](CC(=O)O)NC(=O)[C@H](CO)NC(=O)[C@@H](NC(=O)[C@](C)(Cc1ccccc1)NC(=O)[C@H](CO)NC(=O)CNC(=O)[C@H](Cc1c[nH]cn1)NC(=O)C(C)(C)NC(=O)[C@@H](N)Cc1c[nH]cn1)[C@@H](C)O)C(C)C)[C@@H](C)CC)C(=O)N[C@@H](C)C(=O)N[C@@H](CC(N)=O)C(=O)N[C@H](C(N)=O)[C@@H](C)O
With B3, the “hGLP-1R EC50 (pM)” value in assay [1] worked out at 33 pM. In addition, the “hGluc-R EC50 (pM)” value in assay [2] stood at 105 pM.

B4: Peptide 15 (peptide)
peptide: H[Aib]HGS[αMeF]TSDVSK[αMeF]LDSK([AEEA-AEEA-γGlu-C18 diacid])AARD[αMeF]VE[Aib]IANT-NH2
modifications: N-terminus assumed
SMILES: CC[C@H](C)[C@H](NC(=O)C(C)(C)NC(=O)[C@H](CCC(=O)O)NC(=O)[C@@H](NC(=O)[C@](C)(Cc1ccccc1)NC(=O)[C@H](CC(=O)O)NC(=O)[C@H](CCCNC(=N)N)NC(=O)[C@H](C)NC(=O)[C@H](C)NC(=O)[C@H](CCCCNC(=O)COCCOCCNC(=O)COCCOCCNC(=O)CC[C@H](NC(=O)CCCCCCCCCCCCCCCCC(=O)O)C(=O)O)NC(=O)[C@H](CO)NC(=O)[C@H](CC(=O)O)NC(=O)[C@H](CC(C)C)NC(=O)[C@](C)(Cc1ccccc1)NC(=O)[C@H](CCCCN)NC(=O)[C@H](CO)NC(=O)[C@@H](NC(=O)[C@H](CC(=O)O)NC(=O)[C@H](CO)NC(=O)[C@@H](NC(=O)[C@](C)(Cc1ccccc1)NC(=O)[C@H](CO)NC(=O)CNC(=O)[C@H](Cc1c[nH]cn1)NC(=O)C(C)(C)NC(=O)[C@@H](N)Cc1c[nH]cn1)[C@@H](C)O)C(C)C)C(C)C)C(=O)N[C@@H](C)C(=O)N[C@@H](CC(N)=O)C(=O)N[C@H](C(N)=O)[C@@H](C)O
In the case of B4, the “hGLP-1R EC50 (pM)” value in assay [1] turned out to be 33.1 pM. Moreover, the “hGluc-R EC50 (pM)” value in assay [2] is 61.4 pM.

B5: Peptide 17 (peptide)
peptide: H[Aib]HGS[αMeF]TSDVSK[αMeF]LDSK([AEEA-AEEA-γGlu-C18 diacid])AARD[αMeF]VESIANT-NH2
modifications: N-terminus assumed
SMILES: CC[C@H](C)[C@H](NC(=O)[C@H](CO)NC(=O)[C@H](CCC(=O)O)NC(=O)[C@@H](NC(=O)[C@](C)(Cc1ccccc1)NC(=O)[C@H](CC(=O)O)NC(=O)[C@H](CCCNC(=N)N)NC(=O)[C@H](C)NC(=O)[C@H](C)NC(=O)[C@H](CCCCNC(=O)COCCOCCNC(=O)COCCOCCNC(=O)CC[C@H](NC(=O)CCCCCCCCCCCCCCCCC(=O)O)C(=O)O)NC(=O)[C@H](CO)NC(=O)[C@H](CC(=O)O)NC(=O)[C@H](CC(C)C)NC(=O)[C@](C)(Cc1ccccc1)NC(=O)[C@H](CCCCN)NC(=O)[C@H](CO)NC(=O)[C@@H](NC(=O)[C@H](CC(=O)O)NC(=O)[C@H](CO)NC(=O)[C@@H](NC(=O)[C@](C)(Cc1ccccc1)NC(=O)[C@H](CO)NC(=O)CNC(=O)[C@H](Cc1c[nH]cn1)NC(=O)C(C)(C)NC(=O)[C@@H](N)Cc1c[nH]cn1)[C@@H](C)O)C(C)C)C(C)C)C(=O)N[C@@H](C)C(=O)N[C@@H](CC(N)=O)C(=O)N[C@H](C(N)=O)[C@@H](C)O
With B5, in assay [1], the “hGLP-1R EC50 (pM)” value was 45 pM. Also, the “hGluc-R EC50 (pM)” value in assay [2] is 135 pM.

B6: Peptide 19 (peptide)
peptide: H[Aib]HGS[αMeF]TSDVSK[αMeF]LDSK([AEEA-AEEA-γGlu-γGlu-C18 diacid])AARD[αMeF]VQ[Aib]IANT-NH2
modifications: N-terminus assumed
SMILES: CC[C@H](C)[C@H](NC(=O)C(C)(C)NC(=O)[C@H](CCC(N)=O)NC(=O)[C@@H](NC(=O)[C@](C)(Cc1ccccc1)NC(=O)[C@H](CC(=O)O)NC(=O)[C@H](CCCNC(=N)N)NC(=O)[C@H](C)NC(=O)[C@H](C)NC(=O)[C@H](CCCCNC(=O)COCCOCCNC(=O)COCCOCCNC(=O)CC[C@H](NC(=O)CC[C@H](NC(=O)CCCCCCCCCCCCCCCCC(=O)O)C(=O)O)C(=O)O)NC(=O)[C@H](CO)NC(=O)[C@H](CC(=O)O)NC(=O)[C@H](CC(C)C)NC(=O)[C@](C)(Cc1ccccc1)NC(=O)[C@H](CCCCN)NC(=O)[C@H](CO)NC(=O)[C@@H](NC(=O)[C@H](CC(=O)O)NC(=O)[C@H](CO)NC(=O)[C@@H](NC(=O)[C@](C)(Cc1ccccc1)NC(=O)[C@H](CO)NC(=O)CNC(=O)[C@H](Cc1c[nH]cn1)NC(=O)C(C)(C)NC(=O)[C@@H](N)Cc1c[nH]cn1)[C@@H](C)O)C(C)C)C(C)C)C(=O)N[C@@H](C)C(=O)N[C@@H](CC(N)=O)C(=O)N[C@H](C(N)=O)[C@@H](C)O
In the case of B6, the “hGLP-1R EC50 (pM)” value in assay [1] stood at 38.3 pM. Moreover, the “hGluc-R EC50 (pM)” value in assay [2] is 133 pM.

B7: Peptide 21 (peptide)
peptide: H[Aib]HGS[αMeF]TSDVSK[αMeF]LDSK([γGlu-C18 diacid])AAQD[αMeF]VESIANT-NH2
modifications: N-terminus assumed
SMILES: CC[C@H](C)[C@H](NC(=O)[C@H](CO)NC(=O)[C@H](CCC(=O)O)NC(=O)[C@@H](NC(=O)[C@](C)(Cc1ccccc1)NC(=O)[C@H](CC(=O)O)NC(=O)[C@H](CCC(N)=O)NC(=O)[C@H](C)NC(=O)[C@H](C)NC(=O)[C@H](CCCCNC(=O)CC[C@H](NC(=O)CCCCCCCCCCCCCCCCC(=O)O)C(=O)O)NC(=O)[C@H](CO)NC(=O)[C@H](CC(=O)O)NC(=O)[C@H](CC(C)C)NC(=O)[C@](C)(Cc1ccccc1)NC(=O)[C@H](CCCCN)NC(=O)[C@H](CO)NC(=O)[C@@H](NC(=O)[C@H](CC(=O)O)NC(=O)[C@H](CO)NC(=O)[C@@H](NC(=O)[C@](C)(Cc1ccccc1)NC(=O)[C@H](CO)NC(=O)CNC(=O)[C@H](Cc1c[nH]cn1)NC(=O)C(C)(C)NC(=O)[C@@H](N)Cc1c[nH]cn1)[C@@H](C)O)C(C)C)C(C)C)C(=O)N[C@@H](C)C(=O)N[C@@H](CC(N)=O)C(=O)N[C@H](C(N)=O)[C@@H](C)O
On to B7, for which the “hGLP-1R EC50 (pM)” value in assay [1] is 378 pM. Besides, the “hGluc-R EC50 (pM)” value in assay [2] was 68.8 pM.
